Experiments:
[1] = target: human ILT-2 (LILRB1), complete form expressed at the cell surface (human) (UniProt Q8NHL6); experiment: flow cytometry, CHO-ILT2 cells
[2] = target: recombinant human ILT2 protein (analyte in SPR and Octet) (human) (UniProt Q8NHL6); experiment: BLI (Octet RED96), mAb captured on AMC biosensor, 1:1 model
[3] = target: ILT2 on primary human NK cells (human) (UniProt Q8NHL6); experiment: flow cytometry, primary NK cells
[4] = target: recombinant human CD16b (human) (UniProt O75015); experiment: SPR, antibody immobilized, soluble FcR, steady state
[5] = target: recombinant human CD32a (human) (UniProt P12318); experiment: as above
[6] = target: recombinant human CD16a(V) (human) (UniProt P08637); experiment: as above
[7] = target: recombinant human CD16a(F) (human) (UniProt P08637); experiment: as above
human FcRn (human) = human FcRn (human) (UniProt P55899); experiment: SPR, antibody immobilized, soluble FcR
[8] = target: recombinant human CD32b (human) (UniProt P31994); experiment: SPR, antibody immobilized, soluble FcR, steady state
[9] = target: recombinant human CD64 (human) (UniProt P12314); experiment: SPR, antibody immobilized, soluble CD64, 1:1 kinetic model
Chain of recombinant human CD64 (human) (P12314 16-288 limits assumed): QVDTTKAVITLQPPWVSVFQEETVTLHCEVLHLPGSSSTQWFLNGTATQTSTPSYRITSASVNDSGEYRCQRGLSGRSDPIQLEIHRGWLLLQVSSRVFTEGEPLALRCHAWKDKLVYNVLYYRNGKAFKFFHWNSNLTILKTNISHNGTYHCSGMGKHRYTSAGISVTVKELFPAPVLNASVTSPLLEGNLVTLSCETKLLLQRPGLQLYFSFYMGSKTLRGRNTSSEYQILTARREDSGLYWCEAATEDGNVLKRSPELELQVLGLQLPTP

Chain of recombinant human CD16a(V) (human) (P08637 17-208 F176V limits assumed): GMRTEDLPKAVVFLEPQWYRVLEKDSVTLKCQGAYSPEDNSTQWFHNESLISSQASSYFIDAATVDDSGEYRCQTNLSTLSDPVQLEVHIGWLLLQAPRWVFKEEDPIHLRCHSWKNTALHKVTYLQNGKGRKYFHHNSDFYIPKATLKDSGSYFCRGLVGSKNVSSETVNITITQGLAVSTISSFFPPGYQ
Chain of recombinant human CD32b (human) (P31994 46-217): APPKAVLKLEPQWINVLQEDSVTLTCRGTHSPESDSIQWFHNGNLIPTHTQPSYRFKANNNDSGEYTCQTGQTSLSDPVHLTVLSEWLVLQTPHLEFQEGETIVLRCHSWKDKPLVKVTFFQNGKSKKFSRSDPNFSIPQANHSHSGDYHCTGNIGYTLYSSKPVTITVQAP
Chain of recombinant human CD32a (human) (P12318 36-218): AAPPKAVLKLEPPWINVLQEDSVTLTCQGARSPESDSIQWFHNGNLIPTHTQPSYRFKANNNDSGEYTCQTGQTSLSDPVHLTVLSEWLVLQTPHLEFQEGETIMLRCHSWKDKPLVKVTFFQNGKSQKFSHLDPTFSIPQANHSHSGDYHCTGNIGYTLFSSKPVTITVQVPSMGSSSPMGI
Chain of recombinant human ILT2 protein (analyte in SPR and Octet) (human) (Q8NHL6 24-458 limits assumed): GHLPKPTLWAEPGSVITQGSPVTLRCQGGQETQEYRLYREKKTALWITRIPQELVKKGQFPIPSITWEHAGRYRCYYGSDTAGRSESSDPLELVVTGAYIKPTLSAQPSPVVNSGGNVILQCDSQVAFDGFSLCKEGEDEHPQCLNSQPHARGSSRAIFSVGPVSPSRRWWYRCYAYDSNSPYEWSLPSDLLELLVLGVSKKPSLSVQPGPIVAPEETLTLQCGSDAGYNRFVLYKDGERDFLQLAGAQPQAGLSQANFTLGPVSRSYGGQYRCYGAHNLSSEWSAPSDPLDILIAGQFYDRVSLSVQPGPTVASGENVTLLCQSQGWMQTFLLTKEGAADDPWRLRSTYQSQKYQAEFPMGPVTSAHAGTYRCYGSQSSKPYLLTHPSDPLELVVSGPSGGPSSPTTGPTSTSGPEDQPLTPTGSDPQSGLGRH
Chain of recombinant human CD16a(F) (human) (P08637 17-208 limits assumed): as the sequence (P08637 17-208 F176V limits assumed) above, with V160F counted along it
Chain of recombinant human CD16b (human) (O75015 17-200 limits assumed): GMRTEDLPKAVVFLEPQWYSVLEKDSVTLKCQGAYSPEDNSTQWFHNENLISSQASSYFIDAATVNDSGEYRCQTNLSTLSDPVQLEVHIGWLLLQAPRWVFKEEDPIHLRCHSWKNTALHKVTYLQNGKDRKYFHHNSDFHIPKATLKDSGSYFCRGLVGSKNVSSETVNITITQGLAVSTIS
Chain of ILT2 on primary human NK cells (human) (Q8NHL6 24-650): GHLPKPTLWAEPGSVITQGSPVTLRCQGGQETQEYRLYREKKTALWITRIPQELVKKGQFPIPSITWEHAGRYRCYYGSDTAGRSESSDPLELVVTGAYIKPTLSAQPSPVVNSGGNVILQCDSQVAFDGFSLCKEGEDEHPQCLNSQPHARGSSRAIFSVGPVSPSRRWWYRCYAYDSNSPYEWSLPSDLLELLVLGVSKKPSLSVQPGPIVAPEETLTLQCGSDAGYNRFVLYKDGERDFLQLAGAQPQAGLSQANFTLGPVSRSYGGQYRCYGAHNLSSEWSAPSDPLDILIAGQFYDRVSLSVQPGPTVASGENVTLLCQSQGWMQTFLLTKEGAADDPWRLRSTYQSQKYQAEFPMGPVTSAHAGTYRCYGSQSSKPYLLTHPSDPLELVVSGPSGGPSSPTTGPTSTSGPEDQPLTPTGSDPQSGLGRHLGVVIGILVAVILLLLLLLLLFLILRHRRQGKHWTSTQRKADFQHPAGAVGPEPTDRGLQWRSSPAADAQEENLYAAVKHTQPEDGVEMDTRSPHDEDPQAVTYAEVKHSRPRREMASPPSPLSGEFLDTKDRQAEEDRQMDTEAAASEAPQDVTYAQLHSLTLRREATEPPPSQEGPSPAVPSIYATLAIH
Chain of human ILT-2 (LILRB1), complete form expressed at the cell surface (human) (Q8NHL6 24-650): as above

Kd [5] | Kd [6] | Kd (human FcRn (human)) | Kd [8] | Kd [9] | Substance | further results
– | – | – | – | – | HP-F1 (antibody) | EC50 [1]: 0.56 µg/mL; Kd [2]: 0.0023 µM; koff [2]: 0.0011 s⁻¹; kon [2]: 460000 M⁻¹ s⁻¹; EC50 [3]: 0.09 µg/mL
2.08 µM | 0.734 µM | 1.27 µM | – | – | antibody having wild type human IgG1 domain | Kd [4]: 15 µM; Kd [7]: 0.962 µM
– | – | 0.714 µM | – | – | human IgG1 antibody having L234A/L235E/G237A/A330S/P331S substitutions | –
18.2 µM | – | – | 21.8 µM | – | human IgG1 antibody having L234A/L235E/G237A/A330S/P331S substitutions (antibody; other documents disagree on this pair) | –
16.8 µM | – | 0.758 µM | 16.6 µM | – | human IgG1 antibody having L234A/L235E/G237A/P331S substitutions | –
19.9 µM | 9.92 µM | 1.51 µM | 79.8 µM | 1.55 µM | human IgG1 antibody having L234A/L235E/P331S substitutions | –
14.2 µM | 8.63 µM | 0.627 µM | 17.4 µM | 0.933 µM | human IgG1 antibody having L234F/L235E/P331S substitutions | Kd [7]: 35.6 µM
– | – | 0.712 µM | – | 0.278 µM | human IgG1 antibody having a N297S substitution | –

— patent US20220025045A1
